Laboratory results published in patent US20230102344A1 (published 2023).

Legend:
[1] = biological target: T1, TCRvβ 6-5 expressed on cells (TCRvβ 6-5+ Jurkat cells; human T cells) (human); assay: FACS cell binding
T1 chain: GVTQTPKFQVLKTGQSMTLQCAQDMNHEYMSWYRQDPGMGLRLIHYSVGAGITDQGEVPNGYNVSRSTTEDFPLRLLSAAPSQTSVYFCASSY

[2] = biological target: T1, TCRvβ 6-5 expressed on cells (TCRvβ …); assay: cell binding
[3] = biological target: CD33 expressed on cells (MOLM-13, MV411, HL60) (human, UniProt P20138 18-364); assay: cell binding
CD33 expressed on cells (MOLM-13, MV411, HL60), sequence (P20138 18-364): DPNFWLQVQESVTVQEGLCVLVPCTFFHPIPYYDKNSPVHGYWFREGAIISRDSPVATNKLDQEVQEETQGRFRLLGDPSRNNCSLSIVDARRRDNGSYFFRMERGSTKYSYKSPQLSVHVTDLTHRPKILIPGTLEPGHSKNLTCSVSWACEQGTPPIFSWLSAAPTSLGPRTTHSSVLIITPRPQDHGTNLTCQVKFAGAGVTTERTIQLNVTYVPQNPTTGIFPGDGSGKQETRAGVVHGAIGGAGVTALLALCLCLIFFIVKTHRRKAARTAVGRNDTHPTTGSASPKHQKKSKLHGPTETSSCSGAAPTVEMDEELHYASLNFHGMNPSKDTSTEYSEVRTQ

B1: BJM0387 (bispecific antibody)
heavy: QVQLVQSGAEVKKPGSSVKVSCKASGYSFTTYYIHWVRQAPGQGLEWMGWFFPGSGNIKYNEKFKGRVTITADTSTSTAYMELSSLRSEDTAVYYCAGSYYSYDVLDYWGQGTTVTVSSGGGGSGGGGSGGGGSGGGGSDIQMTQSPSFLSASVGDRVTITCKASQNVGINVVWHQQKPGKAPKALIYSSSHRYSGVPSRFSGSGSGTEFTLTISSLQPEDFATYFCQQFKSYPLTFGQGTKLEIKGGGGSQVQLVQSGAEVKKPGSSVKVSCKASGYTFTDYNMHWVRQAPGQGLEWIGYIYPYNGGTGYNQKFKSKATITADESTNTAYMELSSLRSEDTAVYYCARGRPAMDYWGQGTLVTVSS
light: DIQMTQSPSSLSASVGDRVTITCRASESVDNYGISFMNWFQQKPGKAPKLLIYAASNQGSGVPSRFSGSGSGTDFTLTISSLQPDDFATYYCQQSKEVPWTFGQGTKVEIK
EC50 [1]: 908 pM | EC50 [2]: 910 pM | EC50 [3]: 130 pM
